Data: US20160083466A1 (Regeneron, published 2016)

T1: rat IL-25 expressed with a C-terminal myc-myc-hexahistidine tag (rat)
T1 construct: also called Rat IL-25-MMH
T1 chain: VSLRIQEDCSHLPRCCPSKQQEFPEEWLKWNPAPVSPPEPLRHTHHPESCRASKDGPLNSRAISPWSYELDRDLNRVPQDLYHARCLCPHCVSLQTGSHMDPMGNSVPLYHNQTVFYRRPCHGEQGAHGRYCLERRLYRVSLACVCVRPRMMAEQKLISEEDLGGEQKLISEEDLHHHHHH

T2: human IL-25 expressed with a C-terminal myc-myc-hexahistidine tag (human)
T2 construct: also called hIL-25-MMH; Human IL-25-MMH
T2 chain: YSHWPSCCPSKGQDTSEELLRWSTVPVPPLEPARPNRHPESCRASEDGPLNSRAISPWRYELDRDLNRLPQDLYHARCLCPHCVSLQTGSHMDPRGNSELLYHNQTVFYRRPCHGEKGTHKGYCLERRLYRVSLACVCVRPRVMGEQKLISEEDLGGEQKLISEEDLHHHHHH

T3: mouse IL-25 expressed with a C-terminal myc-myc-hexahistidine tag (mouse)
T3 construct: also called Mouse IL-25-MMH; mIL-25-MMH
T3 chain: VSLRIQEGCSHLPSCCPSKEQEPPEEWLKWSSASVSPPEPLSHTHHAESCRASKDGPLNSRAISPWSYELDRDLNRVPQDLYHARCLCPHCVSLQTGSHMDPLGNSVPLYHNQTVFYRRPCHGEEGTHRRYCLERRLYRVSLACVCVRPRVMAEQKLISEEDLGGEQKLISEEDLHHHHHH

T4: monkey IL-25 expressed with a C-terminal myc-myc-hexahistidine tag (M. fascicularis (cynomolgus monkey))
T4 chain: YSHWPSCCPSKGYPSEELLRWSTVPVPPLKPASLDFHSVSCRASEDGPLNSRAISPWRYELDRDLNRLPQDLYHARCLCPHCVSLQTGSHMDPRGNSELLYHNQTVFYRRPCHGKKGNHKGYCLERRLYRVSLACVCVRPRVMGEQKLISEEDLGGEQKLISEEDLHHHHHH

T5: monkey IL-25 expressed with a C-terminal myc-myc-hexahistidine tag (M. fascicularis (cynomolgus monkey))
T5 construct: also called monkey IL-25-MMH; MfIL-25-MMH
T5 chain: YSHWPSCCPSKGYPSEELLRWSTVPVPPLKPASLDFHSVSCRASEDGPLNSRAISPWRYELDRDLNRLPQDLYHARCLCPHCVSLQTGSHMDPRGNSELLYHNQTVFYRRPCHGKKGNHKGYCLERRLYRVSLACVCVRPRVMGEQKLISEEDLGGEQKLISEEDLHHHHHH

T6: human IL-25 expressed with a C-terminal myc-myc-hexahistidine tag (human)
T6 construct: also called human IL-25-MMH; hIL-25-MMH
T6 chain: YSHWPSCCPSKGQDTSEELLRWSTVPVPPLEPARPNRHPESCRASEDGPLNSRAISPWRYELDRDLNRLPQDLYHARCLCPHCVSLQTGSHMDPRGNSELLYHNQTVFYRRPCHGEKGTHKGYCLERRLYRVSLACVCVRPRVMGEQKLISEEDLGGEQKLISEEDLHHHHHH

B1: H2aM10690N (antibody, V domains shown)
VH: QVQLVQSGAEVKKPGASVKVSCKASGYTFTSYGISWVRQAPGQGLEWMGWISAYNGNTNYAQKLQGRVTMTTDTSTSTAYMELRSLRSDDTAVYYCARVPITGTTWFDPWGQGTLVTVSS
VL: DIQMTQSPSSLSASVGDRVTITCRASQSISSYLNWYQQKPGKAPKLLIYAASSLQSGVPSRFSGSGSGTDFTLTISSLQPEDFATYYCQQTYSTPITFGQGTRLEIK
notes: also called H2M10690N
B2: H4H10883P (antibody, human IgG4, V domains shown)
VH: QVQLQESGPGLVKSSETLSLTCTVSGGSISSYYWSWIRQPPGKGLEWIGFIYYSGSTNYNPSLKSRVTFSVDTSKNHFSLKLNSVTATDTAVYYCARHYFDSGTYELGPFDYWGQGTLVTVSS
VL: DIVMTQSPDSLAVSLGERATINCKSSQNILLTSSNKNYLTWYQQKPGQPPKLLIYWASIRESGVPDRFSGSGSGTDFTLTISSLQAEDVALYFCQQYYITPFTFGPGTKVDIK
notes: H4H prefix = human IgG4 Fc
B3: H4H10862P (antibody, human IgG4, V domains shown)
VH: QVQLQESGPGLVKPSETLSLTCTVSGGSISSYFWSWIRQAPGKGLEWIGFIDYSGSTNYNPSLKSRVTISVDTSKNQFSLKLNSVTAADTAVYYCARQEIINFELNWFDPWGQGTLVTVSS
VL: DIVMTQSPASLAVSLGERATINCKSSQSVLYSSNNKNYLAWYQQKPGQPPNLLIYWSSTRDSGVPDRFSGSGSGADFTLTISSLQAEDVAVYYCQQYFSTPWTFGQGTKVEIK
notes: H4H prefix = human IgG4 Fc
B4: H1M11009N (antibody, mouse IgG1, V domains shown)
VH: EVQLVESGGGLVEPGGSLRLSCVASGFTFSNAWMNWVRQAPGKGLEWVGHIERKTDGGTTDFAAPVKGRFTISRDDSKNTLYLQMNSLKTEDTAVYYCTTVGPYSVPFDYWGQGTLVTVSS
VL: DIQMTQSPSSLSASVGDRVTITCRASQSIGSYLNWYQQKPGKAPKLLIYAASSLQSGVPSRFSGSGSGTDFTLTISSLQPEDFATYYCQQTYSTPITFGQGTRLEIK
notes: H1M prefix = mouse IgG1 Fc
B5: H4H10861P (antibody, human IgG4, V domains shown)
VH: QVQLQESGPGLVKPSETLSLTCTVSGASISNYYWSWIRQPPGKGLEWIGYIFYSGNTNYNPSLKSRVTISVDTSKNQFSLKLSSVTAADTAVYYCARVRFSDYELNWFDPWGQGTLVTVSS
VL: DIVMTQSPDSLAVFLGERATINCRSSQSVFLGSNNKNYLAWYQQKPGQPPKLLIYWASSRESGVPDRFSGSGSGTDFTLTINSLQAEDVAVYYCQQYFITPLTFGGGTKVEIK
notes: H4H prefix = human IgG4 Fc
B6: H2aM11008N (antibody, V domains shown)
VH: QVQLQESGPGLVKPSETLSLTCTVSGGSISSHYWSWIRQPPGKGLEWIGFIYYSGSTNFNPSLKSRVTISIDTSKNQFSLKLSSVTAADTAVYYCARHDYNDYELNYFDLWGRGTLASVSS
VL: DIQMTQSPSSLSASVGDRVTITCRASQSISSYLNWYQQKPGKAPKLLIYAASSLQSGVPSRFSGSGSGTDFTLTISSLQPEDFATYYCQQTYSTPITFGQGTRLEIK
notes: also called H2M11008N
B7: H4H10863P (antibody, human IgG4, V domains shown)
VH: QVQLVQSGAEVKKPGASVKVSCKASGYTFSSYGISWVRQAPGQGLEWMGWISAYNDNTQYAQKFQGRVTMTTDTSTSTAYMELRSLRSDDTAVYYCARVPLQWFGESFDHWGQGTLVTVSS
VL: DIQMTQSPSSLSASVGDRVTITCRASQDINNYLNWFQQKPGKAPKLLIFSTSSLQSGVPSRFSGSGSGTDFTLTISSLQSEDFATYYCQQTFITPLTFGGGTKVEIK

Experiments:
[1] = target: T1, rat IL-25 expressed with a C-terminal …; test: SPR Biacore, antibody captured, 25C;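 as to 100 nM Rat IL-25-MMH Bound (RU): purified anti-IL-25 antibodies were tested by real-time surface plasmon resonance on a Biacore 4000, with rate constants obtained from sensorgram fits to a 1:1 binding model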
Protocol: (§1) Equilibrium dissociation constants (KD values) for IL-25 binding to purified anti-IL-25 antibodies were determined using a real-time surface plasmon resonance biosensor assay on a Biacore 4000 instrument (GE Healthcare). […] All the IL-25 reagents were expressed with a C-terminal myc-myc-hexahistidine tag (referred to herein as “IL-25-MMH”). […] Kinetic association (kₐ) and dissociation (kd) rate constants were determined by fitting the real-time sensorgrams to a 1:1 binding model using Scrubber 2.0c curve fitting software.

[2] = target: T2, human IL-25 expressed with a C-terminal …; test: competition ELISA, 2 nM hIL-25-MMH binding to coated hIL-17RB-hFc
Protocol: (§2) Data analysis was performed using a sigmoidal dose-response model within Prism™ software (GraphPad). […] The absorbance values of the wells containing the highest concentration for each antibody were used to determine the percent maximum blockade.

[3] = target: T2, human IL-25 expressed with a C-terminal …; test: BLI Octet, hIL-25-MMH captured on anti-Penta-His sensor, 25C
Protocol: Binding competition between anti-IL-25 monoclonal antibodies was determined using a real time, label-free bio-layer interferometry assay on an Octet QK384 biosensor (Pall ForteBio Corp.).
The biosensors were washed in HBST kinetics buffer in between every step of the experiment. The real-time binding response was monitored during the course of the experiment and the binding response at the end of every step was recorded.

[4] = target: T1, rat IL-25 expressed with a C-terminal …; test: SPR Biacore, antibody captured, 37C;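 as to 100 nM Monkey IL-25-MMH Bound (RU): biacore 4000 surface plasmon resonance biosensor measuring binding of IL-25-MMH to purified anti-IL-25 antibodies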;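 as to 100 nM Mouse IL-25-MMH Bound (RU): Real-time sensorgrams of IL-25-MMH binding to purified anti-IL-25 antibodies, rate constants obtained by fitting a 1:1 binding model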
Protocol: as §1

[5] = target: T3, mouse IL-25 expressed with a C-terminal …; test: SPR Biacore, antibody captured, 37C;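 as to 100 nM Monkey IL-25-MMH Bound (RU): biacore 4000 surface plasmon resonance biosensor measuring binding of IL-25-MMH to purified anti-IL-25 antibodies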;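 as to 100 nM Mouse IL-25-MMH Bound (RU): Real-time sensorgrams of IL-25-MMH binding to purified anti-IL-25 antibodies, rate constants obtained by fitting a 1:1 binding model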
Protocol: as §1

[6] = target: T3, mouse IL-25 expressed with a C-terminal …; test: SPR Biacore, antibody captured, 25C;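 as to 100 nM Rat IL-25-MMH Bound (RU): purified anti-IL-25 antibodies were tested by real-time surface plasmon resonance on a Biacore 4000, with rate constants obtained from sensorgram fits to a 1:1 binding model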
[7] = target: T4, monkey IL-25 expressed with a …; test: cell-based or functional assay
[8] = target: T2, human IL-25 expressed with a C-terminal …; test: cell-based or functional assay
[9] = target: T2, human IL-25 expressed with a C-terminal …; test: competition ELISA, 2 nM hIL-25-MMH binding to coated hIL-17RB-hFc; (*) below theoretical bottom of the assay
Protocol: as §2

[10] = target: T4, monkey IL-25 expressed with a …; test: SPR Biacore, antibody captured, 37C;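 as to 100 nM Monkey IL-25-MMH Bound (RU): biacore 4000 surface plasmon resonance biosensor measuring binding of IL-25-MMH to purified anti-IL-25 antibodies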;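 as to 100 nM Mouse IL-25-MMH Bound (RU): Real-time sensorgrams of IL-25-MMH binding to purified anti-IL-25 antibodies, rate constants obtained by fitting a 1:1 binding model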
[11] = target: T5, monkey IL-25 expressed with a …; test: SPR Biacore, captured mAb, 25°C;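 as to 100 nM Human IL-25-MMH Bound (RU): biacore 4000 SPR with IL-25-MMH as analyte over purified anti-IL-25 antibodies, association and dissociation rates derived from fitting sensorgrams to a 1:1 binding model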;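 as to 100 nM Monkey IL-25-MMH Bound (RU): Real-time surface plasmon resonance on a Biacore 4000, with IL-25-MMH binding to purified anti-IL-25 antibodies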
Protocol: as §1

[12] = target: T6, human IL-25 expressed with a C-terminal …; test: SPR Biacore, captured mAb, 25°C;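 as to 100 nM Human IL-25-MMH Bound (RU): biacore 4000 SPR with IL-25-MMH as analyte over purified anti-IL-25 antibodies, association and dissociation rates derived from fitting sensorgrams to a 1:1 binding model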;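 as to 100 nM Monkey IL-25-MMH Bound (RU): Real-time surface plasmon resonance on a Biacore 4000, with IL-25-MMH binding to purified anti-IL-25 antibodies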
[13] = target: T6, human IL-25 expressed with a C-terminal …; test: SPR Biacore, captured mAb, 37°C
Protocol: as §1

| Binder | 100 nM Rat IL-25-MMH Bound (RU) [1] | % Maximum blocking of 200 nM antibody [2] | 50 ug/mL mAb-1 Binding (nm) [3] | 100 nM Rat IL-25-MMH Bound (RU) [4] | 100 nM Mouse IL-25-MMH Bound (RU) [5] | 100 nM Mouse IL-25-MMH Bound (RU) [6] | IC50, luciferase reporter cells, 12 pM MfIL-25-MMH [7] | IC50, luciferase reporter cells, 5 pM hIL-25-MMH [8] | IC50 [9] | 100 nM Monkey IL-25-MMH Bound (RU) [10] | Kd [10] | koff [10] | kon [10] | t½ [10] | binding result [1] | binding result [6] | further results |
| --- | --- | --- | --- | --- | --- | --- | --- | --- | --- | --- | --- | --- | --- | --- | --- | --- | --- |
| B1 | 18 RU | 70% | 1.38 nm | 20 RU | 27 RU | 17 RU | – | – | – | – | – | – | – | – | – | – | Kd [1]: 103000 pM; koff [1]: 0.0095 s⁻¹; kon [1]: 91800 M⁻¹ s⁻¹; t½ [1]: 1.2 min; IC50 [2]: 31000 pM; Kd [4]: 115000 pM; koff [4]: 0.0193 s⁻¹; kon [4]: 168000 M⁻¹ s⁻¹; t½ [4]: 36 s; Kd [5]: 81700 pM; koff [5]: 0.00778 s⁻¹; kon [5]: 95300 M⁻¹ s⁻¹; t½ [5]: 1.5 min; Kd [6]: 82300 pM; koff [6]: 0.00319 s⁻¹; kon [6]: 38800 M⁻¹ s⁻¹; t½ [6]: 4 min |
| B2 | 0 RU | 93% | 0.7 nm | 0 RU | 1 RU | 0 RU | 3.9e-11 M | 1.4e-10 M | 200 pM | 72 RU | 23.9 pM | 4.18e-05 s⁻¹ | 1.75e+06 M⁻¹ s⁻¹ | 4.6 h | – | – | – |
| B3 | 1 RU | 89% | 0.83 nm | 1 RU | 2 RU | 0 RU | 3.3e-11 M | 8.4e-11 M | 240 pM | 70 RU | 58.9 pM | 0.000172 s⁻¹ | 2.93e+06 M⁻¹ s⁻¹ | 1.12 h | no binding (tested: 100 nM) | no binding (tested: 100 nM) | – |
| B4 | -1 RU | – | 1.42 nm | 3 RU | 2 RU | 0 RU | – | – | – | – | – | – | – | – | – | no binding (tested: 100 nM) | – |
| B5 | 0 RU | 92% | 0.88 nm | 2 RU | 2 RU | 0 RU | 3.7e-11 M | 6.3e-11 M | 200 pM | 61 RU | 23.6 pM | 7.14e-05 s⁻¹ | 3.03e+06 M⁻¹ s⁻¹ | 2.7 h | no binding (tested: 100 nM) | no binding (tested: 100 nM) | – |
| B6 | 0 RU | 98% | 0.81 nm | 3 RU | 2 RU | -1 RU | – | 1.8e-09 M | 430 pM | – | – | – | – | – | no binding (tested: 100 nM) | – | – |
| B7 | – | – | – | – | – | – | – | – | – | – | – | – | – | – | – | – | 100 nM Monkey IL-25-MMH Bound (RU) [11]: 39 RU; Kd [11]: 199 pM; koff [11]: 6.83e-05 s⁻¹; kon [11]: 343000 M⁻¹ s⁻¹; t½ [11]: 2.82 h; 100 nM Human IL-25-MMH Bound (RU) [12]: 34 RU; Kd [12]: 279 pM; koff [12]: 7.25e-05 s⁻¹; kon [12]: 260000 M⁻¹ s⁻¹; t½ [12]: 2.65 h; 100 nM Human IL-25-MMH Bound (RU) [13]: 46 RU; Kd [13]: 128 pM; koff [13]: 7.78e-05 s⁻¹; kon [13]: 606000 M⁻¹ s⁻¹; t½ [13]: 2.48 h |
